From article PMC6707239 (Scientific Reports, 2019)

Target: the molecule itself
Test: dynamic light scattering; Malvern Zetasizer Nano ZS, hsp60 (wild type or mutant) without nucleotide (APO); percent volume

Protein	stoichiometry N
human mitochondrial hsp60 D3G mutant (MitCHAP-60) (natural protein, UniProt P10809 27-573, looked up, human mitochondrial hsp60 (HspD1), mature protein without the mitochondrial signal peptide, disease mutation D3G, cloned into pET-22b; numbers count on: the mature protein; Mutation found in patients with MitCHAP-60; also called D3G-hsp60; source: E. coli BL21 (DE3), purified (ammonium sulfate, anion-exchange, size-exclusion chromatography)) AKGVKFGADARALMLQGVDLLADAVAVTMGPKGRTVIIEQSWGSPKVTKDGVTVAKSIDLKDKYKNIGAKLVQDVANNTNEEAGDGTTTATVLARSIAKEGFEKISKGANPVEIRRGVMLAVDAVIAELKKQSKPVTTPEEIAQVATISANGDKEIGNIISDAMKKVGRKGVITVKDGKTLNDELEIIEGMKFDRGYISPYFINTSKGQKCEFQDAYVLLSEKKISSIQSIVPALEIANAHRKPLVIIAEDVDGEALSTLVLNRLKVGLQVVAVKAPGFGDNRKNQLKDMAIATGGAVFGEEGLTLNLEDVQPHDLGKVGEVIVTKDDAMLLKGKGDKAQIEKRIQEIIEQLDVTTSEYEKEKLNERLAKLSDGVAVLKVGGTSDVEVNEKKDRVTDALNATRAAVEEGIVLGGGCALLRCIPALDSLTPANEDQKIGIEIIKRTLKIPAMTIAKNAGVEGSLIVEKIMQSSSEVGYDAMAGDFVNMVEKGIIDPTKVVRTALLDAAGVASLLTTAEVVVTEIPKEEKDPGMGAMGGMGGGMGGGMF	14
human mitochondrial hsp60 V72I mutant (SPG13) (natural protein, UniProt P10809 27-573, looked up, human mitochondrial hsp60 (HspD1), mature protein without the mitochondrial signal peptide, disease mutation V72I, cloned into pET-22b; numbers count on: the mature protein; Mutation linked to SPG13; source: E. coli BL21 (DE3), purified (ammonium sulfate, anion-exchange, size-exclusion chromatography)) AKDVKFGADARALMLQGVDLLADAVAVTMGPKGRTVIIEQSWGSPKVTKDGVTVAKSIDLKDKYKNIGAKLIQDVANNTNEEAGDGTTTATVLARSIAKEGFEKISKGANPVEIRRGVMLAVDAVIAELKKQSKPVTTPEEIAQVATISANGDKEIGNIISDAMKKVGRKGVITVKDGKTLNDELEIIEGMKFDRGYISPYFINTSKGQKCEFQDAYVLLSEKKISSIQSIVPALEIANAHRKPLVIIAEDVDGEALSTLVLNRLKVGLQVVAVKAPGFGDNRKNQLKDMAIATGGAVFGEEGLTLNLEDVQPHDLGKVGEVIVTKDDAMLLKGKGDKAQIEKRIQEIIEQLDVTTSEYEKEKLNERLAKLSDGVAVLKVGGTSDVEVNEKKDRVTDALNATRAAVEEGIVLGGGCALLRCIPALDSLTPANEDQKIGIEIIKRTLKIPAMTIAKNAGVEGSLIVEKIMQSSSEVGYDAMAGDFVNMVEKGIIDPTKVVRTALLDAAGVASLLTTAEVVVTEIPKEEKDPGMGAMGGMGGGMGGGMF	14
